{"source": "patent US20240174727A1", "about": "“LONG-ACTING NATRIURETIC PEPTIDES AND USES THEREOF” (Eli Lilly and Company, priority 2022, published 2024)", "note": "Numbered stars: 1 amine (or outer) side, 2 acyl side, 3 side chain; on linkers, the order of the positions; unused ones are H or OH. Bridge positions count the residues as written; N and C are the ends. Square brackets hold non-standard residues; d marks the D form. * marks the point of attachment. C20 diacid = O=C(O)CCCCCCCCCCCCCCCCCCC(=O)*; γGlu = O=C(O)[C@H](CCC(=O)[*:2])N[*:1]; 4Pal = N[C@@H](Cc1ccncc1)C(=O)O"}
{"target": "T1, human NPRA (human, UniProt P16066 33-1061)", "T1 sequence (looked up)": "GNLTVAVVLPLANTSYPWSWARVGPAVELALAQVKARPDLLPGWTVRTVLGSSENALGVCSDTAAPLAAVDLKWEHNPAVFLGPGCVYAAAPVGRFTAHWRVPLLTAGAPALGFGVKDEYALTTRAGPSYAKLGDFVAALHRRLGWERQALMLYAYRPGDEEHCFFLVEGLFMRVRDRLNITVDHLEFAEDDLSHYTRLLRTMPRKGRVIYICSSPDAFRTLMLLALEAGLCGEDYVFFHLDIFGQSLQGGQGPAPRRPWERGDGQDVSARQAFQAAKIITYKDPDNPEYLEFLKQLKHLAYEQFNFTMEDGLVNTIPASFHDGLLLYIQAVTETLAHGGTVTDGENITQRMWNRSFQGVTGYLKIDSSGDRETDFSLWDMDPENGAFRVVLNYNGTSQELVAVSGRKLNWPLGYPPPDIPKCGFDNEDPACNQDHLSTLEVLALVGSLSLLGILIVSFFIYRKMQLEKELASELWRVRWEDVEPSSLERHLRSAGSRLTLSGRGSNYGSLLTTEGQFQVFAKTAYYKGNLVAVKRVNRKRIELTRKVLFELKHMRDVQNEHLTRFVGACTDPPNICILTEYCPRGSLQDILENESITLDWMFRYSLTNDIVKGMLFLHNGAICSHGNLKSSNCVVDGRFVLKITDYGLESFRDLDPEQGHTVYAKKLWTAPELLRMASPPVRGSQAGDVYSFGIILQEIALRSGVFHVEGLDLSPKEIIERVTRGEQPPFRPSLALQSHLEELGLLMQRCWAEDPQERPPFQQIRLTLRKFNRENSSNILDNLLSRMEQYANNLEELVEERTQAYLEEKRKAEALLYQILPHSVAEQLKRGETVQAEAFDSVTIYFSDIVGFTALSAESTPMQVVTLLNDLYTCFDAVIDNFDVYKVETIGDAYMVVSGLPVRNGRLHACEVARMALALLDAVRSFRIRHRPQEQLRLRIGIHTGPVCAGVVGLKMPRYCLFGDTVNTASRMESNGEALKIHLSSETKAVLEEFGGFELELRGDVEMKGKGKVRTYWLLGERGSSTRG", "assay": "cell-based or functional assay", "units": {"cGMP Assay (EC50, pM) w/BSA": "pM", "cGMP Assay (EC50, pM) w/Casein": "pM"}}
{"binder": "{C20 diacid}-[γGlu]EKEKEKGS[4Pal]RRSSCFGGRIDRIGAQSGLGCPSFRH-NH2 (disulfide 15-31; SMILES CC[C@H](C)[C@@H]1NC(=O)[C@H](CCCNC(=N)N)NC(=O)[C@H](CC(=O)O)NC(=O)[C@H]([C@@H](C)CC)NC(=O)[C@H](CCCNC(=N)N)NC(=O)CNC(=O)CNC(=O)[C@H](Cc2ccccc2)NC(=O)[C@@H](NC(=O)[C@H](CO)NC(=O)[C@H](CO)NC(=O)[C@H](CCCNC(=N)N)NC(=O)[C@H](CCCNC(=N)N)NC(=O)[C@H](Cc2ccncc2)NC(=O)[C@H](CO)NC(=O)CNC(=O)[C@H](CCCCN)NC(=O)[C@H](CCC(=O)O)NC(=O)[C@H](CCCCN)NC(=O)[C@H](CCC(=O)O)NC(=O)[C@H](CCCCN)NC(=O)[C@H](CCC(=O)O)NC(=O)CC[C@H](NC(=O)CCCCCCCCCCCCCCCCCCC(=O)O)C(=O)O)CSSC[C@@H](C(=O)N2CCC[C@H]2C(=O)N[C@@H](CO)C(=O)N[C@@H](Cc2ccccc2)C(=O)N[C@@H](CCCNC(=N)N)C(=O)N[C@@H](Cc2c[nH]cn2)C(N)=O)NC(=O)CNC(=O)[C@H](CC(C)C)NC(=O)CNC(=O)[C@H](CO)NC(=O)[C@H](CCC(N)=O)NC(=O)[C@H](C)NC(=O)CNC1=O)", "note": "[Example 22]", "cGMP Assay (EC50, pM) w/BSA": 25100, "cGMP Assay (EC50, pM) w/Casein": 840}
{"binder": "XEKEKEKGEKGRSSCFGGKIDRIGHYSGLGCPSFRHGGPSSGAPPPS (HOOC-(CH2)18-CO-(γGlu)-EKEKEKGEKGRSS[CFGGKIDRIGHYSGLGC]PSFRHGGPSSGAPPPS-NH2; disulfide linkage between the bracketed Cys)", "note": "[Example 45]", "cGMP Assay (EC50, pM) w/BSA": 25200}
{"binder": "XEKEKEKGEKERSSCFGGRIDRIGHYSGLGCPSFRHGGPSSGAPPPS (HOOC-(CH2)18-CO-(γGlu)-EKEKEKGEKERSS[CFGGRIDRIGHYSGLGC]PSFRHGGPSSGAPPPS-NH2; disulfide linkage between the bracketed Cys)", "note": "[Example 49]", "cGMP Assay (EC50, pM) w/Casein": 299}
{"binder": "XEKEKEKGEKXRSSCFGKRIDRIGHQSGLGCPSFRHGGKSSGAPPPS (HOOC-(CH2)18-CO-(γGlu)-EKEKEKGEK-βAla-RSS[CFGKRIDRIGHQSGLGC]PSFRHGGKSSGAPPPS-NH2; thioacetal linkage between the bracketed Cys)", "note": "[Example 85]", "cGMP Assay (EC50, pM) w/Casein": 361}
{"target": "T2, rat NPRA (rat, UniProt P18910 29-1057)", "T2 sequence (looked up)": "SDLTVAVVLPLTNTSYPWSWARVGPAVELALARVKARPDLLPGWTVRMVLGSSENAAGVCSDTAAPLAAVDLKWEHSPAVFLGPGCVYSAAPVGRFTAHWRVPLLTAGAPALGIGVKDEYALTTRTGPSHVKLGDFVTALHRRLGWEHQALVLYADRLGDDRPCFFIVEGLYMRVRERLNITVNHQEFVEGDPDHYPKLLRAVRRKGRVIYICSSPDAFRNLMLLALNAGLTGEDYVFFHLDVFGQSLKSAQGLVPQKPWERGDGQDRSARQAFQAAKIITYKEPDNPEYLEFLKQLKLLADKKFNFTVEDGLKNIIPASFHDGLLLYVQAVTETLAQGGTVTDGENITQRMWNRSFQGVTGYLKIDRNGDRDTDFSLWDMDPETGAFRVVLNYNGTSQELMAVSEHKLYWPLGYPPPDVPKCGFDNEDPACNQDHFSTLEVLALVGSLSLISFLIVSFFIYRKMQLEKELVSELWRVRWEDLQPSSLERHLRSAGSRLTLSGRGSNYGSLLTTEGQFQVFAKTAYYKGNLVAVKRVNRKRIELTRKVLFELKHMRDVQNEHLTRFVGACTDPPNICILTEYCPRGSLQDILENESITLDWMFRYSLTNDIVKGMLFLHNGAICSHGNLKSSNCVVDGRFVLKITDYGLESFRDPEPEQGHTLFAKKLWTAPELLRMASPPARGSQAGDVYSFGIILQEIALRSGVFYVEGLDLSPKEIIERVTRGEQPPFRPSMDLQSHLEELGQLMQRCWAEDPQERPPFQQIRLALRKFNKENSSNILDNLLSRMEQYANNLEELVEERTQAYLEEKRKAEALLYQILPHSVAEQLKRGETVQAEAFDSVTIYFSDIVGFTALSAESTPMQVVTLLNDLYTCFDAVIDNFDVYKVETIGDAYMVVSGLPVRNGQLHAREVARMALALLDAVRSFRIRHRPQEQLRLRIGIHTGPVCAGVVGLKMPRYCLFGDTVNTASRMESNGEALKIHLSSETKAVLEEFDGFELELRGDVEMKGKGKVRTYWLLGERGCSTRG", "assay": "cell-based or functional assay", "units": {"cGMP Assay (EC50, pM) w/BSA": "pM", "cGMP Assay (EC50, pM) w/Casein": "pM"}}
{"binder": "XEKEKEKGSXRRSSCFGGRIDRIGHQSGLGCPSFRHGPSSGAPPPS (HOOC-(CH2)18-CO-(γGlu)-EKEKEKGS-4Pal-RRSS[CFGGRIDRIGHQSGLGC]PSFRH-GPSSGAPPPS-NH2; disulfide linkage between the bracketed Cys)", "note": "[Example 37]", "cGMP Assay (EC50, pM) w/BSA": 84600}
{"binder": "XEKEKEKGSXRRSSCFGGRIDRIGHYSGLGCPSFRHGGPSSGAPPPS (HOOC-(CH2)18-CO-(γGlu)-EKEKEKGS-4Pal-RRSS[CFGGRIDRIGHYSGLGC]PSFRHGGPSSGAPPPS-NH2; disulfide linkage between the bracketed Cys)", "note": "[Example 38]", "cGMP Assay (EC50, pM) w/BSA": 40500}
{"binder": "XEKEKEKGSXKRSSCFGGKIDRIGHQSGLGCPSFRHGGPSSGAPPPS (HOOC-(CH2)18-CO-(γGlu)-EKEKEKGS-4Pal-KRSS[CFGGKIDRIGHQSGLGC]PSFRHGGPSSGAPPPS-NH2; disulfide linkage between the bracketed Cys)", "note": "[Example 30]", "cGMP Assay (EC50, pM) w/Casein": 1130}
{"binder": "XEKEKEKGSXKRSSCFGGKIDRIGXQSGLGCPSFRHGGPSSGAPPPS (HOOC-(CH2)18-CO-(γGlu)-EKEKEKGS-4Pal-KRSS[CFGGKIDRIG-Dap-QSGLGC]PSFRHGGPSSGAPPPS-NH2; disulfide linkage between the bracketed Cys)", "note": "[Example 31]", "cGMP Assay (EC50, pM) w/Casein": 12200}
{"binder": "{C20 diacid}-[γGlu]EKEKEKGS[4Pal]RRSSCFGGRIDRIGAQSGLGCPSFRH-NH2 (disulfide 15-31; SMILES CC[C@H](C)[C@@H]1NC(=O)[C@H](CCCNC(=N)N)NC(=O)[C@H](CC(=O)O)NC(=O)[C@H]([C@@H](C)CC)NC(=O)[C@H](CCCNC(=N)N)NC(=O)CNC(=O)CNC(=O)[C@H](Cc2ccccc2)NC(=O)[C@@H](NC(=O)[C@H](CO)NC(=O)[C@H](CO)NC(=O)[C@H](CCCNC(=N)N)NC(=O)[C@H](CCCNC(=N)N)NC(=O)[C@H](Cc2ccncc2)NC(=O)[C@H](CO)NC(=O)CNC(=O)[C@H](CCCCN)NC(=O)[C@H](CCC(=O)O)NC(=O)[C@H](CCCCN)NC(=O)[C@H](CCC(=O)O)NC(=O)[C@H](CCCCN)NC(=O)[C@H](CCC(=O)O)NC(=O)CC[C@H](NC(=O)CCCCCCCCCCCCCCCCCCC(=O)O)C(=O)O)CSSC[C@@H](C(=O)N2CCC[C@H]2C(=O)N[C@@H](CO)C(=O)N[C@@H](Cc2ccccc2)C(=O)N[C@@H](CCCNC(=N)N)C(=O)N[C@@H](Cc2c[nH]cn2)C(N)=O)NC(=O)CNC(=O)[C@H](CC(C)C)NC(=O)CNC(=O)[C@H](CO)NC(=O)[C@H](CCC(N)=O)NC(=O)[C@H](C)NC(=O)CNC1=O)", "note": "[Example 22]", "cGMP Assay (EC50, pM) w/BSA": 192000, "cGMP Assay (EC50, pM) w/Casein": 1690}
{"binder": "XEKEKEKGEKPRSSCFGGRIDRIGHYSGLGCPSFRHGGPSSGAPPPS (HOOC-(CH2)18-CO-(γGlu)-EKEKEKGEKPRSS[CFGGRIDRIGHYSGLGC]PSFRHGGPSSGAPPPS-NH2; disulfide linkage between the bracketed Cys)", "note": "[Example 55]", "cGMP Assay (EC50, pM) w/Casein": 493}
{"binder": "XEKEKEKGEKPRSSCFGGRIDRIGHYSGLGCPSFRHGGPSSGAPPPS (HOOC-(CH2)18-CO-(γGlu)-EKEKEKGEKPRSS[CFGGRIDRIGHYSGLGC]PSFRHGGPSSGAPPPS-NH2; thioacetal linkage between the bracketed Cys)", "note": "[Example 57]", "cGMP Assay (EC50, pM) w/Casein": 9500}
{"binder": "XEKEKEKGEKPRSSCFGKRIDRIGHYSGLGCPSFRHGSPSSGAPPPS (HOOC-(CH2)18-CO-(γGlu)-EKEKEKGEKPRSS[CFGKRIDRIGHYSGLGC]PSFRHGSPSSGAPPPS-NH2; thioacetal linkage between the bracketed Cys)", "note": "[Example 5]", "cGMP Assay (EC50, pM) w/BSA": 276000, "cGMP Assay (EC50, pM) w/Casein": 1130}
